Laboratory results from the DeepSol protein solubility set.

Assay: soluble on expression in E. coli; label from the status in PepcDB or PDB records

Row | Sequence | soluble on expression in E. coli
1 | MNPFIVADAESCIGCRSCEVACVVAHHEGQFPDKPEYFTPRVKVFKGDQCATAVFCHHCEDAPCASTCPNGAIVELNNRVQVIQEKCIGCKTCMIACPFGMMTVVTETVQPASHRLADVYRRTEAQKCDLCLDQPDGPACIKTCPTQALTLVDQQYLLHQQQQKRQHMALNEHNGRLFSRAVVQAASASSNKSIRDATPVNLLQRPRAPRLEPKKIPLAERKTGFAEIYLPFTESQIHEQAERCLECGDKTICQWTCPLHNAIPKWISLAHQGRIHEAAELSHQTSSLPEVCGRVCPQDRLCEQSCTLNDHDGAVTIGQIERHITETALATGWRPDLSQVKPSGKRVAIIGAGPAGLGCADILVRNGITPVVFDRYPEIGGLLTFGIPAFKLEKSVMTRRREIFTEMGVEFCLNTEIGRDITMENLLHDFDALFLGVGTYRSMRSGLENEDAQGVYDALPFLIGNTQHLMGYTANGAHPYVSMQDQRVVVLGGGDTAMDCVRTSLRQGASRVVCAYRRDEKNMPGSKREVKNAREEGAEFMFNLQPMSIVVDESGQVTGIKMVRTEMGQADAQGRRQALPITGSEHLIPADAVIMAFGFSPHRMSWLAEHNVVLDKHGRVVAPTISGYPYQTSNPKIFAGGDIVRGADLIVTAIAEGRKAAESIAYYLNVL | not soluble
2 | MGSDKIHHHHHHMIIKNAKIYGDSLQDIEIKEGKITNIDSNLQGEEILDAKGMTLLPSFVDLCVSLKNDKFSLANLELLENECLKGGISSIVLRDCMDFDEESFALFLQNLAQRKMQIFSSVRVKDANGKLKNLATLLNKGACALELDSSLDANTLKVSSQYAFMKDSPIFVRCYDKDFDDNGVMNDCEMSFELGLIGMSKIAETSQIAKMKELAKFYKNKVIFDLLSLKDSLVLLDEKDLKLVSIHHLIKDDSACEDFNTAAKLMPPLRSKEDVLALREVLKEGKISFLTSLHSAKSISLKDLAFDEAAFGIHSVCEFISLCYTFLIKEGFLNWQELCRFTSKNPSEFLGLNSGVIEVGKEANLVLFDENEEIFAPKSSLYSEDKLFGKIKMHIIKGKNILEK | not soluble
3 | MSLNREDRLVSAANSYLANNYECFLDDGVILTNNYSLLGTIKLGGIDFLTTSKKDLIELHASIYSVFRNFVTPEFKFYFHTVKKKIVIDETNRDYGLIFSNDFMRAYNEKQKRESFYDISFYLTIEQDLLDTLNEPVMNKKHFADNNFEEFQRIIRAKLENFKDRIELIEELLSKYHPTRLKEYTKDGIIYSKQCEFYNFLVGMNEAPFICNRKDLYLKEKMHGGVKEVYFANKHGKILNDDLSEKYFSAIEISEYAPKSQSDLFDKINALDSEFIFMHAYSPKNSQVLKDKLAFTSRRIIISGGSKEQGMTLGCLSELVGNGDITLGSYGNSLVLFADSFEKMKQSVKECVSSLNAKGFLANAATFSMENYFFAKHCSFITLPFIFDVTSNEGHHHHHH | soluble
4 | MSTRYPTLTRSGFVLPERMKASYEGAADGRRSATWDAPDTGVNSLIMPALRNLRSRSRAAVRNDPYAANAIDRRVSNLIGTGITPQPRIADKELRRIFQETWEDWVDESDADQLTDFYGQQALIARTVEQSGECFVRLRPRRMDDGLAVPLQLQCLAPEFVPHDKFEVTSTGNIIRAGIEFNGFGKRVAYWCYRSHPSDMTSINAGYNMLVRIPASQMLHIFEPVEPGQLRGVPRLAPVLKRLRSLDNFDDAVLFRQEVANLFAGFIRKPSADGPPMLDPLTGAPIKIGGDGFTPMVALEPGTMQELLPGEEVEFSTPPDGGNNYPDFMRQQLMAAAAGAGLPYELMTGDMRGVNDRTIRVVLNEFRRRLEQLQFSVYVHQLCRPVRAAWMDMAVLSGALQLDDYAARRREYLRTRWVPQGWSYIHPVQDVQSRTMEINAGLASRSEMCLRTGTDAEIVDEENAADAARARGLGLNYSTLSAFDEDPDEKENP | not soluble
5 | MCTSLTLETKNGQHLFARTMDFTLDMNQEVIIIPRHYQWNNITGEIINTKHATVGMGINHQGRIIMADGVNEAGMTCATLYFPGFATYSQSIDDNTTNLAPFDFVTWSLTQFNSVKELKKSVDSITFLDIPLPDLGLTPPLHWILADKWGDCIVLDPTSEGLKLYDNPLGVMTNSPEFNWHLQNLRQYIGLKSQPFAPTEWSNLPLSAFGQGSGSMGLPGDFTPPSRFVRAAYGKQNIQGIDSEEEGVSALFHILSNCEVPKGGVITEEGALDNTIYTSVMCMESGTYYYHTYDCRQIIAVHLFHENLDTDEIKAYPFQRKQKIFYEN | not soluble
6 | MCLEPIIAPISSELLEQELTADRFLRMTNKAGNEIYVFTAEEAPHCMKEVGRLREEAFRHYGGGTGKAIDIDEFDTMPGSYKQLIVWDPQNKAILGGYRFIYGRDVAFDTDGKPLLATAEMFRFSDAFLHDYLPYTVELGRSFVSLQYQSTRMGTKAIFVLDN | not soluble
7 | MAQHVKFHQYFFQWMQLYKLDAVRPVTYRKYEMSHRQLVTLAPDLKMADLSRLTYQQLLNDYAETHERQTTMDFHRHLKGSLIDALEEGFIDRDPTRKAIIKGIKHRQHKLEHHHHHH | soluble
8 | MPAFVERTPSAEVPRQVLRPHAEHAFAAELASLAGQDDRPRPARWRLSPWAVATYLLGGTLPDGTVITPKYVGPRRVVEVAVTTLATDRALLLLGVPGTAKTWVSEHLAAAVSGDSTLLVQGTAGTPEEAIRYGWNYARLLAHGPGRDALVPSPVMRAMTEGATVRVEELTRIPADVQDSLITLLSEKTLPIPELGEEVQAVRGFNLIATANDRDRGVNDLSSALRRRFNTVVLPLPESAEAEVDIVTRRVDQIGRSLDLPSAPDGTDEIRRVVTVFRELRDGLTSDGRTKVKSPSGPLSTAEAISVVTGGLALCAHFGDGVLRAGDLAAGVLGAVVRDPGTDRVVWQEYLETVVREREGWQDFYRACREVTALEHHHHHH | not soluble
9 | MNFDWQMPRDPFADDPNDPASFIEDDEQAPPLTEAERQHIREDLALVKRFKEALEPRGINGIFFLCEDCDEDHYYDWDIMAANMRATLAGELAPVHEPSVNPNPHAYVPWDYCLGYLDGLEAPRMRFF | not soluble
10 | MIGGGPGGLYFAYLWKKRHPEDQVDLFEQNPADATWGFGVVFSDQALEFLRADDPETVDAIAPHMESWENITLNLQGGSVAIDGVGFSSIGRLELLQFLQQRALDVGVTPRFDTQIHGIDQLNGHDLIVAADGLNSLVRRAYEGDFGTSLSYSSNKFVWYGTSKRFDTLSQTFVKTDRGAFNAHHYRYSPTMSTFLVECDHATWQAYGFAYKDVEQSKGVCEEVFADTLGGHCLVSNKSVWRNFPWVWNEHWSFKNMVLIGDALHSAHFSIGSGTRLAIEDAIALVKALESDAHLNTALLRYQAARKPVVQKLVDAARTSASWYENFAQHMQLDLMDFAYSYITRSGRIDDSRLRAMSPAFMARYEAAKNGGDAASEATALEHHHHHH | soluble
11 | MSIVSLAKQSGLSVSSISAYENNKRQPKIESLQKISKVLGVSSAYLNGMSEEKNILNVNSQSLKNNTIDIDVIGFLLNVRSTYPGKVPIFIQDVLAGAPIYIDDNGNKLDAKKRKLLITFLKTLLN | not soluble
12 | MGSDKIHHHHHHMENSQQHTDFRQRLELLIGSEKPYAWAARNGLNKGSFTNMWYKGGVPRIGTAQKIAANSGCRVEWLLYGEGPMQDECAQAHDAPMPAGLPALSPLADADEHEVPAGVQEEFCFIPRYNLKASAGFGTSAAGEQPMFYMAFRRYWVKNYLNASPRNLVVISVKGDSMSGVLEDRDTILVNTAERHPGEGLFVIRIGDDIFVKQLQRLPGGAVQVKSANPLYETFTVDLSRASGEFEVIGRVVWFGRQIA | not soluble
13 | GPGSMTHDSRTPQGKSRVSGGSSCFPSGYLNNESFDLNSETDHVSANSSTCHPAESYHLLLPRELQTPAQHFTTPEIPEISSHSPLCSALFSSVTEMQHQSVLEVGVASDQGIRSSMEDEHVTVVEPEVCFFGIYDGHGGRQCAEYVRARLHEITLAHECLKTDPRKAISDAFAQVEREFLGQNTNDMSSAGCVCAAAVVQGSVLTVGNVGDCEVVLARAGQPVLLTVKHNPSCNDAEATRVKKAGGCIFNCRVGHPRFNPRMCSLAVSRAVGDAGFKLEEYTNGKPSGIIAVADTSEVLLAKDDEFLILACDGLWDTMSYAEAVELATAYMASGADANSVADQLVGEALRRGTRDNVTAIFVRLGGSAQAGLGDANK | not soluble
14 | GAMGSKISNIFEDVEFCVMSGTDSQPKPDLENRIAEFGGYIVQNPGPDTYCVIAGSENIRVKNIILSNKHDVVKPAWLLECFKTKSFVPWQPRFMIHMCPSTKEHFAREYDCYGDSYFIDTDLNQLKEVFSGIKNSNEQTPEEMASLIADLEYRYSWDCSPLSMFRRHTVYLDSYAVINDLSTKNEGTRLAIKALELRFHGAKVVSCLAEGVSHVIIGEDHSRVADFKAFRRTFKRKFKILKESWVTDSIDKCELQEENQYLI | soluble
